The IC50 is the concentration that gives 50% inhibition. Higher therefore signals lower potency.

For the test, the target named is PscF from strain PAO1 (Pseudomonas aeruginosa) (UniProt P95434). Description: ELISA; competition with biotinylated P1D8.

“P1D8 (human anti-PscF monoclonal antibody) (from UniProt P01857)” displayed a 50% inhibitory concentration (IC50) of 0.01 µg/mL.

These data come from PMC12912723.
